For 1 molecule, Kd results are on record in article PMC12803953, “The MO25 protein Pmo25 functions in contractile ring stability and Sid2 localization during cytokinesis” (iScience, 2025).

One may read the Kd as the equilibrium constant for the complex coming apart.

Assay [1] addresses T1, MBP-Ync13-full length-6His (S. pombe, UniProt O13683 1-1237).
T1 construct: cloned in pET21a-MBP between the MBP-TEV-GGSGGS fragment and the C-terminal 6xHis tag; A TEV site and a GGSGGS linker stand between MBP and Ync13; also called MBP-tagged full length Ync13; not shown: MBP, N-terminal, kept; His6, C-terminal, kept
T1 sequence (looked up): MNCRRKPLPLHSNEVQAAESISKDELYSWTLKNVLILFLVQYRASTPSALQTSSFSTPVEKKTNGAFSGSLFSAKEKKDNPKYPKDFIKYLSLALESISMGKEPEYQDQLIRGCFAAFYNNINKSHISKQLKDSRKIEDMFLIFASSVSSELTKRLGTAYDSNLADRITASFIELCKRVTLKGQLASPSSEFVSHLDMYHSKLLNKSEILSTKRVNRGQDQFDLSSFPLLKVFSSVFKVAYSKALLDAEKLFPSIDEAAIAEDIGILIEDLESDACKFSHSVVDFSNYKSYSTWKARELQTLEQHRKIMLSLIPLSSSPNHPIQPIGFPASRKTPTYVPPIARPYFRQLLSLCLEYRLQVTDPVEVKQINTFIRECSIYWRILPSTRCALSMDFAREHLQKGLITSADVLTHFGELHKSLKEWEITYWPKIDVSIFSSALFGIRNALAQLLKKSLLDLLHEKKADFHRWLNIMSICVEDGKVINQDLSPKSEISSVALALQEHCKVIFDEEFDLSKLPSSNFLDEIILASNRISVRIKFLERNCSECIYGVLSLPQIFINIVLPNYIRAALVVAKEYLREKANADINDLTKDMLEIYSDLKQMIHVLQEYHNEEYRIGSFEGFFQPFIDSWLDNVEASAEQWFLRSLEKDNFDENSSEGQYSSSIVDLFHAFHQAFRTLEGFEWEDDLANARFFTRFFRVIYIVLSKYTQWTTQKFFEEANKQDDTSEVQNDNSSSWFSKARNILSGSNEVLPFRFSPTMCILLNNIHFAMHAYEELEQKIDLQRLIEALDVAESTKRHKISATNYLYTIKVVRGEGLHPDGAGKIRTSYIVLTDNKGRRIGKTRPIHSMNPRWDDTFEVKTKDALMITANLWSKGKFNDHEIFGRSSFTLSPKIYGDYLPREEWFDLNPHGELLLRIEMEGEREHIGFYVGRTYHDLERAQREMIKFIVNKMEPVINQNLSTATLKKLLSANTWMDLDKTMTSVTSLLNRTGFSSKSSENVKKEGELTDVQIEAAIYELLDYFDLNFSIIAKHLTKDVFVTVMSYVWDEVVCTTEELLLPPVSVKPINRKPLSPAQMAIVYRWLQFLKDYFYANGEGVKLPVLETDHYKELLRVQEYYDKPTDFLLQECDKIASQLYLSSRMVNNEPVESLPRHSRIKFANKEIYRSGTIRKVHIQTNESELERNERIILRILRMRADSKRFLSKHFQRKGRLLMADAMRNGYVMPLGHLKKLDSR
The assay can be described thus: pull-down; Kd by depletion of the supernatant: various concentrations of MBP-Ync13 proteins immobilised on amylose beads with a fixed low concentration of Pmo25-(19–329)-6His, 1 h at 4°C; supernatant on SDS-PAGE, Coomassie Blue; one site binding equation. Conditions: both partners purified.

Assay [2] concerns the target T2, MBP-Ync13-(591–1130)-6His (S. pombe, UniProt O13683 591-1130).
T2 construct: The cloning of this fragment is not described; not shown: MBP, N-terminal, kept; His6, C-terminal, kept
T2 sequence (looked up): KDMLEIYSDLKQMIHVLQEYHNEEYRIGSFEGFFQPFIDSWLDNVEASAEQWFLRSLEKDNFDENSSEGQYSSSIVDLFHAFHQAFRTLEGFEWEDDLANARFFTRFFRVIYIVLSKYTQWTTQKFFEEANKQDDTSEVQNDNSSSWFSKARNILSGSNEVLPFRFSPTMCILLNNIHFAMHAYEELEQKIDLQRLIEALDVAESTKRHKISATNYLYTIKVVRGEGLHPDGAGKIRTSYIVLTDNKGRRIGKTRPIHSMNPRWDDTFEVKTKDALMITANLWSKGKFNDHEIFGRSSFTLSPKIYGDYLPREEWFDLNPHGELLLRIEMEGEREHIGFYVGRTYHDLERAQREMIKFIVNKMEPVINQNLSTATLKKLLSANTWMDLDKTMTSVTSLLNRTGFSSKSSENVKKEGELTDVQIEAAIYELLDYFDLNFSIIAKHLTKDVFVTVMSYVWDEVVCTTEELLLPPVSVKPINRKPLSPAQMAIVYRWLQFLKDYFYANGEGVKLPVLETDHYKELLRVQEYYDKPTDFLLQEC
Described as above. Conditions: both partners purified.

B1: Pmo25-(19–329)-6His (domain or fragment, S. pombe, UniProt Q9P7Q8 19-329, looked up)
chain: LCDNLPKLEINNDKKKSFEEVSKCLQNLRVSLCGTAEVEPDADLVSDLSFQIYQSNLPFLLVRYLPKLEFESKKDTGLIFSALLRRHVASRYPTVDYMLAHPQIFPVLVSYYRYQEVAFTAGSILRECSRHEALNEVLLNSRDFWTFFSLIQASSFDMASDAFSTFKSILLNHKSQVAEFISYHFDEFFKQYTVLLKSENYVTKRQSLKLLGEILLNRANRSVMTRYISSAENLKLMMILLRDKSKNIQFEAFHVFKLFVANPEKSEEVIEILRRNKSKLISYLSAFHTDRKNDEQFNDERAFVIKQIERL
notes: in pET21a between the N-terminal T7 tag and the C-terminal 6xHis tag; not shown: His6, C-terminal, kept
Regarding B1, the Kd in assay [1] amounted to 490 nM; in assay [2], 620 nM.
